Experimental data published in patent publication US20230181719A1, “NGR CONJUGATES AND USES THEREOF” (OSPEDALE SAN RAFFAELE S.R.L., priority 2020, published 2023).
Starred links: 1 amine or outer side, 2 acyl side, 3 side chain; linkers in the order of their positions; H or OH if unused. Positions of bridges follow the written chain, without caps; N, C: chain ends. Non-standard residues stand in square brackets, D forms with d. Residues, ends and D or L forms follow the SMILES beside them. No end group written: not given here. βAsp = O=C(O)[C@H](CC(=O)[*:2])N[*:1]

Experiments:
[1] = Peptide deamidation stability upon incubation at 37° C., by mass spectrometry; format: physicochemical; conditions: pH 7.4
Protocol: FIG. 11. The peptide SCNGRCGVRY (SEQ ID NO: 3) has a lower propensity to deamidate than CNGRCGVRY (SEQ ID NO:4) in a physiological buffer at […], but not in ammonium bicarbonate buffer at pH 8.5. A and B) MS analysis of SCNGRCGVRY (SEQ ID NO: 3) and CNGRCGVRY (SEQ ID NO:4) after incubation at 37° C. for the indicated time in 50 mM sodium phosphate buffer, pH 7.4 (PBS) or 0.1 M ammonium bicarbonate buffer, pH 8.5 (Ambic). The values +0, + 1, -17 reported in the plot correspond to the difference between the observed and the expected molecular mass of peptides expressed in daltons. MS analysis was performed using the LTQ-Orbitrap mass spectrometer (Thermo Scientific).
To assess whether the addition of the serine residue to CNGRCG (SEQ ID NO:1) might affect its deamidation propensity inventors synthetized the SCNGRCGVRY (SEQ ID NO: 3) and CNGRCGVRY (SEQ ID NO:4) peptides and studied their stability upon incubation at 37° C. in PBS, pH 7.4, by mass spectrometry.
A similar experiment was then performed with peptides in 0.1 M ammonium bicarbonate, pH 8.5, a condition known to force Asn deamidation (Curnis et al. 2006). […] Furthermore, the succinimide-derivative of S-NGR-TNF, when formed, is more prone to hydrolysis.

[2] = target: αvβ3 (Homo sapiens, UniProt P05106+P06756); experiment: Competitive binding of acetyl-CisoDGRCG/streptavidin-peroxidase to integrin-coated microtiterplates; conditions: αvβ3, αvβ5, αvβ6, αvβ8 and α5β1 (all integrins)
Source text: To assess whether the isoDGR derivative of S-NGR-TNF and NGR-TNF targeting domains can recognize integrins with similar affinities inventors then analysed the binding of SCisoDGRCGVRY (SEQ ID NO: 17), CisoDGRCGVRY and acetyl-CisoDGRCGVRY to αvβ3, αvβ5, αvβ6 αvβ8 and α5β1 integrins using a competitive binding assay previously described (Curnis et al. 2010). […] As expected […] (SEQ ID NO: 3) and […] […] Considering that human NGR-TNF contains acetylated and non-acetylated forms and that both CNGRC (SEQ ID NO:5) and acetyl-CNGRC can undergo deamidation (Curnis et al. 2010), inventors can conclude that the isoDGR derivative of S-NGR-TNF, if formed, behave in a manner similar to those of the isoDGR derivatives of NGR-TNF in terms of integrin recognition.

[3] = system: L-M cells; experiment: LM-cells cytolytic assay (MTT); format: cell-based; conditions: actinomycin D, 20 h, murine proteins
Source text: FIG. 8. Biochemical and biological characterization of murine S-NGR-TNF and NGR-TNF. A) SDS-PAGE under reducing (βMe +) and non-reducing conditions (βMe -) of murine S-NGR-TNF, NGR-TNF and TNF. Arrows: bands corresponding to monomeric subunits (mon) and reducible dimers (dim). B) Representative mass spectra of murine NGR-TNF, TNF and S-NGR-TNF as determined by a Q Exactive HF mass spectrometer. Expected average masses are shown. C) Cytotoxic activity of TNF, NGR-TNF and S-NGR-TNF against L-M cells. L-M cells were incubated in DMEM medium supplemented with 2 mM glutamine, 100 U/ml penicillin, 100 µg/ml streptomycin, 0.25 µg/ml amphotericin-B, 10% fetal bovine serum, 2 µg/ml actinomycin D and TNF, NGR-TNF or S-NGR-TNF at the indicated doses (20 h at 37° C., 5% CO2). Cell viability was quantified by standard 3-(4,5-dimethylthiazol-2-yl)-2,5-diphenyltetrazolium bromide (MTT) assay. D) Binding of TNF, NGR-TNF and S-NGR-TNF to sTNF-R1 (Etanercept). Microtiterplates were precoated with or without the indicated amount of sTNF-R1 (for 16 h), washed with PBS, blocked with PBS containing 3% milk, 1% BSA (binding buffer, 1 h) and incubated with the indicated amounts of TNF, NGR-TNF or S-NGR-TNF diluted in binding buffer (for 1.5 h). The binding of each protein to sTNF-R1 was then detected using a polyclonal anti-murine TNF (IP301, 5 µg/ml in binding buffer, 1 h) followed by a polyclonal goat anti-rabbit antibody conjugated with horseradish peroxidase (1:1000 in binding buffer, 1 h) and o-phenylendiammine as chromogenic substrate.
To assess whether the addition of a serine residue to NGR-TNF affects its capability to recognize the TNF receptors and, consequently, its biological activity, inventors then analyzed the cytotoxic activity of TNF, NGR-TNF and S-NGR-TNF in the LM-cells cytolytic assay.

[4] = target: T1, αvβ6 integrin (UniProt P06756 31-992; P18564 22-707, limits assumed); experiment: competitive binding assay, integrin-coated plates; competitor probe acetyl-CisoDGRCG/streptavidin-peroxidase
T1 construct: Coated on microtiter plates
Source text: (§1) To assess whether the isoDGR derivative of S-NGR-TNF and NGR-TNF targeting domains can recognize integrins with similar affinities inventors then analysed the binding of SCiso[…] (SEQ ID NO: 17), Ciso[…] and acetyl-Ciso[…] to αvβ3, αvβ5, αvβ6 αvβ8 and α5β1 integrins using a competitive binding assay previously described (Curnis et al. 2010). […] Considering that human NGR-TNF contains acetylated and non-acetylated forms and that both CNGRC (SEQ ID NO:5) and acetyl-CNGRC can undergo deamidation (Curnis et al. 2010), inventors can conclude that the isoDGR derivative of S-NGR-TNF, if formed, behave in a manner similar to those of the isoDGR derivatives of NGR-TNF in terms of integrin recognition.
(§2) a) Competitive binding of acetyl-CisoDGRCG/streptavidin-peroxidase to integrins. The binding assay was performed using integrin-coated microtiterplates as previously described (Curnis et al. 2013). b) n, number of independent experiments, each in duplicate.

[5] = target: T2, αvβ8 integrin (UniProt P06756 31-992; P26012 43-684, limits assumed); experiment: as above
T2 construct: Coated on microtiter plates
Source text: as §1, §2

[6] = target: T3, αvβ5 integrin (UniProt P06756 31-992; P18084 24-719, limits assumed); experiment: as above
T3 construct: Coated on microtiter plates
Source text: as §1, §2

[7] = target: T4, αvβ3 integrin (UniProt P06756 31-992; P05106 27-718, limits assumed); experiment: as above
T4 construct: Coated on microtiter plates
Source text: as §1, §2

[8] = target: T5, α5β1 integrin (UniProt P08648 42-995; P05556 21-728, limits assumed); experiment: as above
T5 construct: Coated on microtiter plates
Source text: as §1, §2

[9] = target: T6, recombinant human histidine-tagged CD13 (human, UniProt P15144 69-967, limits assumed); experiment: CD13 enzyme kinetics inhibition, 60 mM potassium phosphate buffer, pH 7.4
T6 construct: Histidine tag present; also called aminopeptidase N
Source text: FIG. 10. The peptide […] (SEQ ID NO: 3) inhibits CD13 enzymatic activity more efficiently than […] (SEQ ID NO:4) and acetylated-[…]. A) Steady state kinetic analysis of CD13 in the presence of various amounts of L-alanine p-nitroanilide substrate and […] (SEQ ID NO: 3), […] (SEQ ID NO:4), or acetylated-[…] (ac-[…]) (SEQ ID NO:42). A representative plot of 3-4 independent experiments, showing the initial velocity (V₀) versus substrate concentration (mean ± SE of four technical replicates), is shown. The assays were performed with recombinant human histidine-tagged CD13 (200-300 ng/ml) in 60 mM potassium phosphate buffer, pH 7.4, at room temperature. The kinetic of p-nitroanilide formation was monitored spectrophotometrically (A405 nm) for 5-10 min. The inhibitory constant (Ki) reported in each plot is the result of the 3-4 independent experiments (mean ± SE). B) Double reciprocal plots of the experiments reported in panel A.
Each experiment was performed with 4 technical replicates

[10] = target: T6, recombinant human histidine-tagged CD13; experiment: CD13 enzyme kinetics inhibition, 50 mM Tris-HCl buffer, pH 7.4

Molecule	Ki [4]	Ki [5]	Ki [6]	Ki [7]	Ki [8]	Ki [9]	Ki [10]	further results
CC(C)[C@H](NC(=O)CNC(=O)[C@@H]1CSSC[C@H](N)C(=O)N[C@@H](CC(N)=O)C(=O)NCC(=O)N[C@@H](CCCNC(=N)N)C(=O)N1)C(=O)N[C@@H](CCCNC(=N)N)C(=O)N[C@@H](Cc1ccc(O)cc1)C(=O)O [CNGRCGVRY, CNGRCGVRY (SEQ ID NO:4), reference compound] (H-CNGRCGVRY-OH; disulfide 1-5 (inferred); N-terminus and C-terminus assumed)	–	–	–	–	–	–	–	-17 Da form (succinimide intermediate of deamidation) ([1]; after 2 h at 37° C. in PBS): observed; +1 Da deamidation product (DGR/isoDGR) ([1]; after 32 h at 37° C. in PBS): observed; -17 Da form still present ([1]; after 32 h at 37° C. in PBS): a large amount of the -17 Da form was still present
CC(C)[C@H](NC(=O)CNC(=O)[C@@H]1CSSC[C@H](NC(=O)[C@@H](N)CO)C(=O)N[C@@H](CC(=O)O)C(=O)NCC(=O)N[C@@H](CCCNC(=N)N)C(=O)N1)C(=O)N[C@@H](CCCNC(=N)N)C(=O)N[C@@H](Cc1ccc(O)cc1)C(=O)O [SCDGRCGVRY, SCDGRCGVRY (SEQ ID NO:22)] (H-SCDGRCGVRY-OH; disulfide 2-6; N-terminus and C-terminus assumed)	–	–	–	–	–	–	–	affinity for integrins [2]: no or very low affinity
TNF: Murine tumor necrosis factor-α (SEQ ID NO: 15) [reference compound]	–	–	–	–	–	–	–	EC50 cytotoxic activity [3]: very similar
Ac-CNGRCGVRY (disulfide 1-5) [acetylated-CNGRCGVRY peptide]	–	–	–	–	–	50700 nM	38100 nM	–
SCNGRCGVRY (disulfide 2-6, Synthetic peptide corresponding to the N-terminal region of human S-NGR-TNF) [SCNGRCGVRY peptide]	> 10000 nM	> 10000 nM	> 10000 nM	> 10000 nM	> 10000 nM	25000 nM	6800 nM	–
Ac-C[βAsp]GRCGVRY (disulfide 1-5) [acetyl-CisoDGRCGVRY peptide]	5 nM	18 nM	21 nM	3 nM	4 nM	–	–	–

Further lines, with some results ahead:

Ki [4]	Ki [5]	Ki [6]	Ki [7]	Ki [8]	Ki [9]	Ki [10]	Molecule	further results
25 nM	156 nM	77 nM	17 nM	11 nM	–	–	SC[βAsp]GRCGVRY (disulfide 2-6) [SCisoDGRCGVRY peptide]	–
–	–	–	–	–	76500 nM	35600 nM	CNGRCGVRY (disulfide 1-5, Synthetic peptide corresponding to the N-terminal region of human NGR-TNF) [CNGRCGVRY peptide]	–
5500 nM	21400 nM	779 nM	3340 nM	4790 nM	–	–	SCDGRCGVRY [SCDGRCGVRY peptide]	–
131 nM	554 nM	391 nM	11 nM	75 nM	–	–	C[βAsp]GRCGVRY (disulfide 1-5) [CisoDGRCGVRY peptide]	–
